According to PMC8620955:
Where “and” joins values, the source holds several entries; their conditions need not be identical. Identical values can stand only once.

Key:
[1] = molecular target: HIS-tagged FcγR2B (UniProt P31994); assay: SPR; Biacore T200; His-tagged FcγR2B or FcγR3A captured by an anti-HIS antibody on a CM5 chip; antibody as analyte, single-cycle titration, 25 to 400 nM, 30 min dissociation; HBS-T pH 7.4; KD from fits to the responses at equilibrium
[2] = molecular target: HIS-tagged FcγR3A (UniProt P08637); assay: as above
[3] = molecular target: HIS-tagged FcγR1A (UniProt P12314); assay: SPR; Biacore T200; His-tagged FcγR1A captured by an anti-HIS antibody on a CM5 chip; antibody as analyte, single-cycle kinetics, 2.5 to 40 nM, 30 min dissociation; HBS-T pH 7.4; bivalent binding model
[4] = molecular target: HIS-tagged HER2 (Homo sapiens (assumed; trastuzumab target, species not stated)) (UniProt P04626); assay: SPR; Biacore T200; His-tagged HER2 (4 nM) captured by an anti-HIS antibody on a CM5 chip; antibody as analyte, single-cycle kinetics, 2-fold dilutions 0.5–8 nM, 20 µL/min for 2 min, 60 min dissociation; HBS-T (10 mM HEPES, 150 mM NaCl, 0.05% Tween 20, pH 7.4); bivalent binding model; duplicate

Row | Substance | Kd [1] | Kd [2] | Kd [3] | koff [3] | kon [3] | Kd [4]
1 | HEK Trastuzumab (antibody) | 686 nM | 433 nM | 9.9 nM | 0.001 s⁻¹ | 110000 M⁻¹ s⁻¹ | –
2 | Herceptin (antibody) | 666 nM | 267 nM | 4.7 nM | – | – | –
3 | Trastuzumab A121N (antibody) | 3140 nM and 3740 nM | 295 nM and 268 nM | 4.8 nM | 0.00083 s⁻¹ and 0.00098 s⁻¹ | 170000 M⁻¹ s⁻¹ and 200000 M⁻¹ s⁻¹ | –
4 | Trastuzumab L115N (antibody) | 269 nM and 338 nM | 301 nM and 394 nM | 6.4 nM and 3.7 nM | – | – | 1.13 nM and 1.16 nM
5 | Trastuzumab L177N (antibody) | 1280 nM and 992 nM | 535 nM and 551 nM | 5.6 nM | 0.0014 s⁻¹ and 0.0015 s⁻¹ | 250000 M⁻¹ s⁻¹ and 260000 M⁻¹ s⁻¹ | –
6 | Trastuzumab L182N (antibody) | – | – | 8.2 nM and 8.1 nM | 0.0015 s⁻¹ | – | –
7 | Trastuzumab Q160N (antibody) | 143 nM | 596 nM and 535 nM | 6.5 nM and 6.7 nM | 0.00076 s⁻¹ | 120000 M⁻¹ s⁻¹ and 110000 M⁻¹ s⁻¹ | –
8 | Trastuzumab Q178N (antibody) | 485 nM | 239 nM and 217 nM | 2.6 nM and 2.5 nM | – | 370000 M⁻¹ s⁻¹ | –
9 | Trastuzumab T198N (antibody) | 666 nM | – | 3.8 nM | 0.00088 s⁻¹ and 0.0009 s⁻¹ | 240000 M⁻¹ s⁻¹ | –
